Earlier results as cited in PMC2945288.

Molecular target: coat protein (procapsid) (Salmonella phage P22) (UniProt P26747)
Sequence of UniProt P26747 (P26747 2-430): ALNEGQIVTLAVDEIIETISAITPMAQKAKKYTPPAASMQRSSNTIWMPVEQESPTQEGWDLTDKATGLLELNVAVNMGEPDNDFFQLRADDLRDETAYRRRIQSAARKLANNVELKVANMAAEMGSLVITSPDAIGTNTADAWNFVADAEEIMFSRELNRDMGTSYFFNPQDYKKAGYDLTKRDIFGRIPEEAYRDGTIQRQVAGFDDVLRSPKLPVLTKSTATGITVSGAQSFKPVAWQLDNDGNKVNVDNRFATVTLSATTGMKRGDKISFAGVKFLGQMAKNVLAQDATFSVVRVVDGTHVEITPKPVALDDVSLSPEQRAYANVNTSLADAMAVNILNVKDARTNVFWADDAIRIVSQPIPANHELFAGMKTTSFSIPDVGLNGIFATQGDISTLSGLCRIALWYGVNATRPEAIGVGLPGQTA

scaffolding protein (loosely bound) (from UniProt P26748)
Kd: 28 µM
